# Test results published in patent US20080261863A1 (Bayer, published 2008).
# Ends that are not written are not given here.
# B1: P412 (P12+43 kD PEG) (peptide)
# peptide: HSDAVFTDQYTRLRKQVAAKKYLQSIKQKRYC
# modifications: branched 43 kD PEG attached to the C-terminal cysteine via maleimide (thioether) linkage
# B2: P5 (peptide)
# peptide: HSDAVFTDQYTRLRKQVAAKKYLQSIKQKRY
# modifications: ends and bridges not checked
# B3: P12 (peptide)
# peptide: B1 peptide
# modifications: ends and bridges not checked
# B4: P212 (P12+22 kD PEG) (peptide)
# peptide: B1 peptide
# modifications: linear 22 kD PEG attached to the C-terminal cysteine via maleimide (thioether) linkage
# Biological target: T1, VPAC1 receptor
# T1 sequence (P32241 whole entry, species assumed, looked up): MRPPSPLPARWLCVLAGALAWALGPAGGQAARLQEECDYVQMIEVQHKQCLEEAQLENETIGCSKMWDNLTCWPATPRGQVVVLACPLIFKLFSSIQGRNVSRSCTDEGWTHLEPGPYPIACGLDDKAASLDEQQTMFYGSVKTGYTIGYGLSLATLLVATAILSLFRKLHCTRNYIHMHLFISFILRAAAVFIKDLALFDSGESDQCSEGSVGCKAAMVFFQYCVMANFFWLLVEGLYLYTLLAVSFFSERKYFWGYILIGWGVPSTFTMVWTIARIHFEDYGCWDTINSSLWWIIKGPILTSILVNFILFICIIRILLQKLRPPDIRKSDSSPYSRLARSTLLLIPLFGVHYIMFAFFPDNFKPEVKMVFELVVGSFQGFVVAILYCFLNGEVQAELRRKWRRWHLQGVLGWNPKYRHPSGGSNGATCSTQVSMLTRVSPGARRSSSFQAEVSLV
# Test: cell-based or functional assay
row,Binder,"EC50 (nM), cAMP assay, VPAC1 agonist activity"
1,B1,> 1000 nM
2,B2,232 nM
3,B3,> 1000 nM
4,B4,> 1000 nM
